Changes are numbered by the printed parent chain.
Columns and labels:
Hfq [1] = target: T1, Hfq (Escherichia coli K12, UniProt P0A6X3 1-102); assay: smFRET; 5 nM sRNA (N13)-Hfq; rates 0.05 s-1 (49%) and 0.01 s-1; lifetime >~112 s; smFRET: 10 mM Tris-HCl pH 7.5, 50 mM NaCl, 50 mM KCl, 4 mM Trolox, 0.01% Nikkol, 0.8% glucose, RNasin, oxygen scavenger; EMSA: 1x TNK, 5% glycerol, 15 min RT, native 8% PAGE 1x TBE 4 C; conditions: protein: recombinant; tags: none (untagged); chain copies: 6; label: tether 5' biotin, 3' Cy5; RNA 3' extension paired to DNA tether; 5' hairpin
Hfq [2] = target: T1, Hfq; assay: smFRET; sRNA (N13)-Hfq; lifetime similar to (AAC)4; smFRET: 10 mM Tris-HCl pH 7.5, 50 mM NaCl, 50 mM KCl, 4 mM Trolox, 0.01% Nikkol, 0.8% glucose, RNasin, oxygen scavenger; EMSA: 1x TNK, 5% glycerol, 15 min RT, native 8% PAGE 1x TBE 4 C; conditions: protein: recombinant; tags: none (untagged); chain copies: 6; label: tether 5' biotin, 3' Cy5; RNA 3' extension paired to DNA tether; 5' hairpin
Hfq [3] = target: T1, Hfq; assay: smFRET; sRNA (N13)-Hfq; 57% dynamic; smFRET: 10 mM Tris-HCl pH 7.5, 50 mM NaCl, 50 mM KCl, 4 mM Trolox, 0.01% Nikkol, 0.8% glucose, RNasin, oxygen scavenger; EMSA: 1x TNK, 5% glycerol, 15 min RT, native 8% PAGE 1x TBE 4 C; conditions: protein: recombinant; tags: none (untagged); chain copies: 6; label: tether 5' biotin, 3' Cy5; RNA 3' extension paired to DNA tether; 5' hairpin; spacer stem-loop
Hfq [4] = target: T1, Hfq; assay: smFRET; sRNA (N13)-Hfq; prefers S6 site; smFRET: 10 mM Tris-HCl pH 7.5, 50 mM NaCl, 50 mM KCl, 4 mM Trolox, 0.01% Nikkol, 0.8% glucose, RNasin, oxygen scavenger; EMSA: 1x TNK, 5% glycerol, 15 min RT, native 8% PAGE 1x TBE 4 C; conditions: protein: recombinant; tags: none (untagged); chain copies: 6; label: tether 5' biotin, 3' Cy5; RNA 3' extension paired to DNA tether; 5' hairpin
Hfq [5] = target: T1, Hfq; assay: smFRET; sRNA (N13)-Hfq; 23% dynamic; smFRET: 10 mM Tris-HCl pH 7.5, 50 mM NaCl, 50 mM KCl, 4 mM Trolox, 0.01% Nikkol, 0.8% glucose, RNasin, oxygen scavenger; EMSA: 1x TNK, 5% glycerol, 15 min RT, native 8% PAGE 1x TBE 4 C; conditions: protein: recombinant; tags: none (untagged); chain copies: 6; label: tether 5' biotin, 3' Cy5; RNA 3' extension paired to DNA tether; 5' hairpin
Hfq [6] = target: T1, Hfq; assay: smFRET; sRNA (N13)-Hfq; smFRET: 10 mM Tris-HCl pH 7.5, 50 mM NaCl, 50 mM KCl, 4 mM Trolox, 0.01% Nikkol, 0.8% glucose, RNasin, oxygen scavenger; EMSA: 1x TNK, 5% glycerol, 15 min RT, native 8% PAGE 1x TBE 4 C; conditions: protein: recombinant; tags: none (untagged); chain copies: 6; label: tether 5' biotin, 3' Cy5; RNA 3' extension paired to DNA tether; 5' hairpin
Hfq [7] = target: T1, Hfq; assay: smFRET; sRNA (N13)-Hfq; 39% dynamic; smFRET: 10 mM Tris-HCl pH 7.5, 50 mM NaCl, 50 mM KCl, 4 mM Trolox, 0.01% Nikkol, 0.8% glucose, RNasin, oxygen scavenger; EMSA: 1x TNK, 5% glycerol, 15 min RT, native 8% PAGE 1x TBE 4 C; conditions: protein: recombinant; tags: none (untagged); chain copies: 6; label: tether 5' biotin, 3' Cy5; RNA 3' extension paired to DNA tether; 5' hairpin

B1: (AAC)4-N0-S6 mRNA on DNA tether (mixed)
RNA: GGACUCUAUCGAGUCCAACAACAACAACGACCUCGCGCCCAGGACGACACACUUUGGACAGGACACACAGGACACAGG
DNA: CCTGTGTCCTGTGTGTCCTGTCCAAAGTGTGTCGTCC
B1: binds (Hfq [1]).

B2: (AAC)6-N35-S6 mRNA on DNA tether (mixed)
RNA: GGACUCUAUCGAGUCCAACAACAACAACAACAACCCCUGCAUCACCUAAACUUUACUCUACCAUCACCAGACCUCGCGCCCAGGACGACACACUUUGGACAGGACACACAGGACACAGG
DNA: B1 DNA
B2: binds (Hfq [2]).

B3: (AAC)4-S6-N13-S6_SL tandem mRNA on DNA tether (mixed)
RNA: GGACUCUAUCGAGUCCAACAACAACAACAGACCUCUCUACCAUCACCGCAGCAUACUGCUGCAGACCUCGCGCCCAGGACGACACACUUUGGACAGGACACACAGGACACAGG
DNA: B1 DNA
B3: binds (Hfq [3]).

B4: (AAC)4-S6-N15-S4 tandem mRNA on DNA tether (mixed)
RNA: GGACUCUAUCGAGUCCAACAACAACAACCGACCUCUCUACCAUCACCACUCCUCGCGCCCAGGACGACACACUUUGGACAGGACACACAGGACACAGG
DNA: B1 DNA
B4: binds (Hfq [4]).

B5: (AAC)4-S6-N35-S6 tandem mRNA on DNA tether (mixed)
RNA: GGACUCUAUCGAGUCCAACAACAACAACAGACCUCUCUACCAUCACCUAAACUUUACUCUACCAUCACCAGACCUCGCGCCCAGGACGACACACUUUGGACAGGACACACAGGACACAGG
DNA: B1 DNA
B5: binds (Hfq [5]).

B6: (AAC)4-S4-N13-S6 tandem mRNA on DNA tether (mixed)
RNA: B4 RNA with C29A, G30C, A31U, A48C, C49G, U50A
DNA: B1 DNA
B6: binds (Hfq [4]).

B7: (AAC)4-N35-S6 mRNA on DNA tether (mixed)
RNA: GGACUCUAUCGAGUCCAACAACAACAACUCUACCAUCACCUAAACUUUACUCUACCAUCACCAGACCUCGCGCCCAGGACGACACACUUUGGACAGGACACACAGGACACAGG
DNA: B1 DNA
B7: binds (Hfq [6]).

B8: (AAC)4-S6-N13-S6 tandem mRNA on DNA tether (mixed)
RNA: B4 RNA with C29A, C49G, U50A
DNA: B1 DNA
B8: binds (Hfq [7]).

B9: (AAC)4-N15-S6 mRNA on DNA tether (mixed)
RNA: GGACUCUAUCGAGUCCAACAACAACAACUCUACCAUCACCUAAGACCUCGCGCCCAGGACGACACACUUUGGACAGGACACACAGGACACAGG
DNA: B1 DNA
B9: binds (Hfq [6]).

Reference: article PMC10920880, “RNA compaction and iterative scanning for small RNA targets by the Hfq chaperone”
